The values below are quoted from earlier work in paper PMC7855609.

Data set [1] has as its target Asp226 (UniProt position 292, CLALVDTGASY). Put plainly: kinetics. The note with it: Enzyme turning over the wild-type peptide substrate PTDP (His at P2).
For data set [2], the target named is Asp38 (UniProt position 104, FKVVFDTGSSN). Put plainly: kinetics. The conditions noted are these: Enzyme turning over the wild-type peptide substrate PTDP (His at P2).

Take “Renin (recombinant human renal renin) (Homo sapiens)”: the pKa in data set [1] is 6.3; in data set [2], 5.3.

The pKa is the negative logarithm of the acid dissociation constant.
